IntAct's records for PubMed 22653727

B1: Circadian locomoter output cycles protein kaput (Mus musculus), O08785 (parent)
chain: MVFTVSCSKMSSIVDRDDSSIFDGLVEEDDKDKAKRVSRNKSEKKRRDQFNVLIKELGSMLPGNARKMDKSTVLQKSIDFLRKHKETTAQSDASEIRQDWKPTFLSNEEFTQLMLEALDGFFLAIMTDGSIIYVSESVTSLLEHLPSDLVDQSIFNFIPEGEHSEVYKILSTHLLESDSLTPEYLKSKNQLEFCCHMLRGTIDPKEPSTYEYVRFIGNFKSLTSVSTSTHNGFEGTIQRTHRPSYEDRVCFVATVRLATPQFIKEMCTVEEPNEEFTSRHSLEWKFLFLDHRAPPIIGYLPFEVLGTSGYDYYHVDDLENLAKCHEHLMQYGKGKSCYYRFLTKGQQWIWLQTHYYITYHQWNSRPEFIVCTHTVVSYAEVRAERRRELGIEESLPETAADKSQDSGSDNRINTVSLKEALERFDHSPTPSASSRSSRKSSHTAVSDPSSTPTKIPTDTSTPPRQHLPAHEKMTQRRSSFSSQSINSQSVGPSLTQPAMSQAANLPIPQGMSQFQFSAQLGAMQHLKDQLEQRTRMIEANIHRQQEELRKIQEQLQMVHGQGLQMFLQQSNPGLNFGSVQLSSGNSNIQQLTPVNMQGQVVPANQVQSGHISTGQHMIQQQTLQSTSTQQSQQSVMSGHSQQTSLPSQTPSTLTAPLYNTMVISQPAAGSMVQIPSSMPQNSTQSATVTTFTQDRQIRFSQGQQLVTKLVTAPVACGAVMVPSTMLMGQVVTAYPTFATQQQQAQTLSVTQQQQQQQQQPPQQQQQQQQSSQEQQLPSVQQPAQAQLGQPPQQFLQTSRLLHGNPSTQLILSAAFPLQQSTFPPSHHQQHQPQQQQQLPRHRTDSLTDPSKVQPQ

Assays:
Conditions in all cases: with Bmal1, Q9WTL8-4
Sequence of Bmal1, Q9WTL8-4 (Q9WTL8 other isoform, or with tags, fused parts or gaps): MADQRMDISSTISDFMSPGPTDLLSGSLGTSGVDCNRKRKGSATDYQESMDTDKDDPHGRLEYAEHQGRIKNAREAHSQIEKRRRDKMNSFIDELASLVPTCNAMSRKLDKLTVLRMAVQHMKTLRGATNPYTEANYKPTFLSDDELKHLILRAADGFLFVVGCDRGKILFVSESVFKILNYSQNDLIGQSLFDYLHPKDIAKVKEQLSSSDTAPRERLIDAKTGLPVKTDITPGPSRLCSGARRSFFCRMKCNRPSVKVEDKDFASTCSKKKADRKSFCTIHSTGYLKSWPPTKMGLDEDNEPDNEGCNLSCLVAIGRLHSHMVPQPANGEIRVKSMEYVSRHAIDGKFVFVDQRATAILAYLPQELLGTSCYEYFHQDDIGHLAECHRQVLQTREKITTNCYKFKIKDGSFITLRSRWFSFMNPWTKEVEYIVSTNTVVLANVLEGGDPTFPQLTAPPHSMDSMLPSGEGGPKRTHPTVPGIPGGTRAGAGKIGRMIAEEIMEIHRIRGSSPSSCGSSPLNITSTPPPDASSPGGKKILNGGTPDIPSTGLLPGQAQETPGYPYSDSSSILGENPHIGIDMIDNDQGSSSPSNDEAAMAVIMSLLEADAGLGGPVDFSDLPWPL

Bmal1, Q9WTL8-4 [1] = variants of: B1
Bmal1, Q9WTL8-4 [2] = variants of: B1; remark: listed apart in the source
Bmal1, Q9WTL8-4 [3] = variants of: B1; remark: listed apart in the source

Row | Variant | effect of a mutation on the interaction (Bmal1, Q9WTL8-4 [1]) | effect of a mutation on the interaction (Bmal1, Q9WTL8-4 [2]) | effect of a mutation on the interaction (Bmal1, Q9WTL8-4 [3])
1 | L57E;L113E;W284A | disrupting interaction strength | disrupting interaction strength | –
2 | L74E | disrupting interaction strength | decreasing interaction strength | –
3 | L57E | with no effect | decreasing interaction strength | –

Further lines, results first:

Row | effect of a mutation on the interaction (Bmal1, Q9WTL8-4 [1]) | effect of a mutation on the interaction (Bmal1, Q9WTL8-4 [2]) | effect of a mutation on the interaction (Bmal1, Q9WTL8-4 [3]) | Variant
4 | with no effect | – | – | L113E
5 | with no effect | decreasing interaction strength | – | V315R
6 | with no effect | – | – | F122D
7 | disrupting interaction strength | – | decreasing interaction strength | W284A
